{
  "source": "paper PMC7907143",
  "about": "“SPARC coordinates extracellular matrix remodeling and efficient recruitment to and migration of antigen-specific T cells in the brain following infection” (Scientific Reports, 2021)",
  "key": {"CXCL10": {"biological_target": "CXCL10 (UniProt P02778)", "details": "cited from earlier work"}, "[1]": {"biological_target": "Secreted Protein, Acidic, Rich in Cysteine (SPARC), recombinant murine (murine) (UniProt P07214)", "assay": "MST; Monolith NT.115; 4.5 nM NT-495-labelled SPARC, unlabelled chemokine titrated; Ca-MST buffer (50 mM Tris pH 7.4, 150 mM NaCl, 2 mM CaCl2, 0.05% Tween 20); room temperature; three measurements; thermophoresis plus t-jump"}, "[2]": {"biological_target": "T1, Secreted Protein, Acidic, Rich in Cysteine (SPARC), recombinant murine (murine, UniProt P07214 18-302, fluorescent label NT-495, covalently linked by NHS coupling (in the thermophoresis only; unlabelled in the gel filtration))", "T1 construct": "SPARC, mouse, recombinant; most likely the mature secreted protein; also called recombinant SPARC; source: bought: R&D Systems or Peprotech (recombinant murine)", "T1 sequence (looked up)": "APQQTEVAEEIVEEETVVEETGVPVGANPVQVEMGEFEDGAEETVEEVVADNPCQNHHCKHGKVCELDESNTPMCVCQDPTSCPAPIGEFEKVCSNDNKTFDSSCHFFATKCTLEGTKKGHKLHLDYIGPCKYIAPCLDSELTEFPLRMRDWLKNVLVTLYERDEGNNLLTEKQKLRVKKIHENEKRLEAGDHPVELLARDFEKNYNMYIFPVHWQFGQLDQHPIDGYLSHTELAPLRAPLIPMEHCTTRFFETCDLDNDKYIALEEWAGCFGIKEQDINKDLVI", "assay": "MST; Monolith NT.115; 4.5 nM NT-495-labelled SPARC, unlabelled chemokine titrated; Ca-MST buffer (50 mM Tris pH 7.4, 150 mM NaCl, 2 mM CaCl2, 0.05% Tween 20); room temperature; three measurements; thermophoresis plus t-jump", "details": "both partners purified"}},
  "data": [
    {"molecule": "CXCL10 (from UniProt P02778)", "values": [
      {"measurement": "Kd", "setting": "CXCL10", "result": 9000, "unit": "nM"}
    ]},
    {"molecule": "CCL21, recombinant murine (from UniProt P84444 24-133) (ligand)", "values": [
      {"measurement": "Kd", "setting": "[1]", "result": 984, "unit": "nM"}
    ]},
    {"molecule": "CCL19, recombinant murine (ligand, UniProt O70460 26-108, looked up, CCL19, mouse, recombinant; Most likely the mature chemokine without its signal peptide; source: bought: R&D Systems or Peprotech (recombinant murine)) GANDAEDCCLSVTQRPIPGNIVKAFRYLLNEDGCRVPAVVFTTLRGYQLCAPPDQPWVDRIIRRLKKSSAKNKGNSTRRSPVS", "values": [
      {"measurement": "Kd", "setting": "[2]", "result": 1.9, "unit": "nM"}
    ]}
  ]
}
